The text below walks through data of patent publication US20250325640A1.

The target of the assay is CD20 on Daudi cells (UniProt P11836). Briefly: cell-based or functional assay.

“Rituximab (anti-CD20 IgG, Mabthera) (antibody)” registered a complement-dependent cytotoxicity (CCK8 cell survival, baby rabbit serum) (% of cells dead) of 70.
